Data taken from the supplement of paper PMC7125110.
± gives the standard error. Variants at the floor of the assay were thinned out.

B1: glmS ribozyme (parent)
chain: AUAAAAGCGCCAGAACUACAGAAAUGUAGUUGACGAGGAGGAGGUUUAUCGAAUUUUCGGCGGAUGCCUCCAAA

Assays:
Conditions in all cases: with glucosamine-6-phosphate
[1] = variants of: B1; test: self-cleavage kobs at 40 uM GlcN6P; higher = faster cleavage; RNA array
Procedure, shortened: (§1)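 Tiles of sequenced MiSeq chips were imaged over ~14 h at 37 °C. On them, barcoded ribozyme variants had been transcribed in situ by E. coli RNA polymerase and were tracked via a hybridised Cy3 probe while glucosamine-6-phosphate (40 μM to 10 mM) in HEPES/KCl/Mg(OAc)2 buffer flowed in. Per-tile medians, normalised to baseline and to non-cleaving reference variants, were fit to one- or two-exponential decays for kobs, and weighted Michaelis–Menten fits gave kcat and KM.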

[2] = variants of: B1; test: self-cleavage kobs at 2500 uM GlcN6P; higher = faster cleavage; RNA array
Procedure, shortened: as §1

[3] = variants of: B1; test: self-cleavage kobs at 160 uM GlcN6P; higher = faster cleavage; RNA array
Procedure, shortened: as §1

[4] = variants of: B1; test: self-cleavage kobs at 10000 uM GlcN6P; higher = faster cleavage; RNA array
Procedure, shortened: as §1

[5] = variants of: B1; test: self-cleavage kobs at 640 uM GlcN6P; higher = faster cleavage; RNA array
Procedure, shortened: as §1

AUAAAAUCGCCAGAAUUACAGAAAUGUACUUGACGAGGAGGAGGUUUAUCGAAAUUUCGGCGGAUGCCUCCAAA [G7U C16U G29C U54A]
self-cleavage kobs at 40 uM GlcN6P [1]: < 1e-05 s⁻¹ | self-cleavage kobs at 2500 uM GlcN6P [2]: < 1e-05 s⁻¹

AUAAAAUCGCCAGAACUACAGAAAUGUAGUUGACGAGGAGGAGGUUUAUGGAAUUUUCGGCGGAUGCGUCCAAA [G7U C50G C68G]
self-cleavage kobs at 40 uM GlcN6P [1]: 0.000115 ± 2e-05 s⁻¹ | self-cleavage kobs at 160 uM GlcN6P [3]: 0.000493 ± 0.00019 s⁻¹ | self-cleavage kobs at 2500 uM GlcN6P [2]: 0.000185 ± 6.6e-05 s⁻¹ | self-cleavage kobs at 10000 uM GlcN6P [4]: 0.000186 ± 3.4e-05 s⁻¹

AUAAAAUAGCCAGAACUACAGAAAUGUAGUUGUCGAGGAGGAAGUUUAUCGAAUAUUCGGCGGAUGCCUCCAAA [G7U C8A A33U G43A U55A]
self-cleavage kobs at 40 uM GlcN6P [1]: < 1e-05 s⁻¹ | self-cleavage kobs at 640 uM GlcN6P [5]: < 1e-05 s⁻¹ | self-cleavage kobs at 2500 uM GlcN6P [2]: < 1e-05 s⁻¹ | self-cleavage kobs at 10000 uM GlcN6P [4]: < 1e-05 s⁻¹

AUAAAAUCGCCAGAACUACAGAAAUGUAGUUGACGAGGAGGAGGUUUAUCGAAUUUUCGUCGGAUGCCUCCAAA [G7U G60U]
self-cleavage kobs at 40 uM GlcN6P [1]: < 1e-05 s⁻¹ | self-cleavage kobs at 160 uM GlcN6P [3]: < 1e-05 s⁻¹ | self-cleavage kobs at 640 uM GlcN6P [5]: < 1e-05 s⁻¹ | self-cleavage kobs at 10000 uM GlcN6P [4]: < 1e-05 s⁻¹

AUAAAAUCGCCAGAACUACAGAAAUGUAGUUGACGAGGAGGAGGUUUAUCGAAUUUUCGGCGGAUGCCUGGAAA [G7U C70G C71G]
self-cleavage kobs at 40 uM GlcN6P [1]: 4.02e-05 ± 2e-05 s⁻¹ | self-cleavage kobs at 640 uM GlcN6P [5]: 0.000251 ± 8.1e-05 s⁻¹

AUAAAAUCGCCAGAACUACAGAAAUGUAGUUGAUGAGGAGGAGGUUUAUCGAAUUUUCGGCGGAUGCCUCCAAA [G7U C34U]
self-cleavage kobs at 40 uM GlcN6P [1]: < 1e-05 s⁻¹ | self-cleavage kobs at 2500 uM GlcN6P [2]: < 1e-05 s⁻¹

AUAAAAUCGCCAGAACUACAGAAAUGUACUUGACGAGGAGGAGGUUUAUCGAAUUUUCGGUGGAUGCCUCCAAA [G7U G29C C61U]
self-cleavage kobs at 40 uM GlcN6P [1]: < 1e-05 s⁻¹

AUAAAAUCGCCAAAACUACAGAAAUGUAGUUGACGAGGAGGAGGUUUAUCGAAUUUUCGGCGGAUGUCUCCAAA [G7U G13A C67U]
self-cleavage kobs at 40 uM GlcN6P [1]: < 1e-05 s⁻¹

AUAAAAUCGCCAGAACUACAGAAAUGUAGUUGACGAGUAGGAGGUGUAUCGAAUUUUCGGCGGAUGCCUCCAAA [G7U G38U U46G]
self-cleavage kobs at 40 uM GlcN6P [1]: < 1e-05 s⁻¹

AUAAAAUCGCCAGAACUACAGAAAUGUAGUUUACGAGGAGGAGGUUUAACGAAUUUUCGGCGGAUGCCUCCAAA [G7U G32U U49A]
self-cleavage kobs at 40 uM GlcN6P [1]: < 1e-05 s⁻¹ | self-cleavage kobs at 640 uM GlcN6P [5]: < 1e-05 s⁻¹ | self-cleavage kobs at 2500 uM GlcN6P [2]: < 1e-05 s⁻¹ | self-cleavage kobs at 10000 uM GlcN6P [4]: < 1e-05 s⁻¹

AUAAAAUCGCCAGAACUACAGAAAUGUAGUUGACGAGGAGGAGGUUUAUCGAAUUUUAGGCGGAUGGCUUCAAA [G7U C58A C67G C70U]
self-cleavage kobs at 40 uM GlcN6P [1]: 9.59e-05 ± 3.4e-05 s⁻¹

AUAAAAUGGCCAGAACUACAGAAAUGUAGUUGACGAGGAGGAGGUUGAUCGAAUUUUUGGGGGAUGCCGCCAAA [G7U C8G U47G C58U C61G U69G]
self-cleavage kobs at 40 uM GlcN6P [1]: 0.000436 ± 0.00012 s⁻¹ | self-cleavage kobs at 10000 uM GlcN6P [4]: 0.000464 ± 0.00012 s⁻¹

AUAAAAUCACCAGUACUACAGAAAUGUAGUUGACGAGGAGGAGGUUUAUGGAAUUUUCGGCGGAUGCCUCCAAA [G7U G9A A14U C50G]
self-cleavage kobs at 40 uM GlcN6P [1]: 0.000146 ± 5.4e-05 s⁻¹ | self-cleavage kobs at 160 uM GlcN6P [3]: 0.000138 ± 3.6e-05 s⁻¹ | self-cleavage kobs at 640 uM GlcN6P [5]: 0.000267 ± 5.8e-05 s⁻¹ | self-cleavage kobs at 2500 uM GlcN6P [2]: 0.000647 ± 0.00016 s⁻¹ | self-cleavage kobs at 10000 uM GlcN6P [4]: 0.000226 ± 5.3e-05 s⁻¹

AUAAAAUCGCCAGAACUACAGAAAUGUACUUGACGAGGAGGAGGUUUAUCGAAUUUUCGGCGGAUGCCUCCAAA [G7U G29C]
self-cleavage kobs at 40 uM GlcN6P [1]: < 1e-05 s⁻¹ | self-cleavage kobs at 160 uM GlcN6P [3]: < 1e-05 s⁻¹ | self-cleavage kobs at 640 uM GlcN6P [5]: < 1e-05 s⁻¹ | self-cleavage kobs at 2500 uM GlcN6P [2]: < 1e-05 s⁻¹ | self-cleavage kobs at 10000 uM GlcN6P [4]: < 1e-05 s⁻¹
